This note sets out measurements from patent publication US20100075898A1 (BEN GURION UNIVERSITY OF THE NEGEV RESEARCH AND DEVELOPMENT …, published 2010).

Data set [1] concerns the target T1, purified rat brain HK-I (Hexokinase 1) (rat, UniProt P05708 1-918).
T1 construct: Purified from rat brain; immobilised on the SPR chip or added (28 mU/ml) to bilayer-reconstituted VDAC1; also called HK-1
T1 sequence (looked up): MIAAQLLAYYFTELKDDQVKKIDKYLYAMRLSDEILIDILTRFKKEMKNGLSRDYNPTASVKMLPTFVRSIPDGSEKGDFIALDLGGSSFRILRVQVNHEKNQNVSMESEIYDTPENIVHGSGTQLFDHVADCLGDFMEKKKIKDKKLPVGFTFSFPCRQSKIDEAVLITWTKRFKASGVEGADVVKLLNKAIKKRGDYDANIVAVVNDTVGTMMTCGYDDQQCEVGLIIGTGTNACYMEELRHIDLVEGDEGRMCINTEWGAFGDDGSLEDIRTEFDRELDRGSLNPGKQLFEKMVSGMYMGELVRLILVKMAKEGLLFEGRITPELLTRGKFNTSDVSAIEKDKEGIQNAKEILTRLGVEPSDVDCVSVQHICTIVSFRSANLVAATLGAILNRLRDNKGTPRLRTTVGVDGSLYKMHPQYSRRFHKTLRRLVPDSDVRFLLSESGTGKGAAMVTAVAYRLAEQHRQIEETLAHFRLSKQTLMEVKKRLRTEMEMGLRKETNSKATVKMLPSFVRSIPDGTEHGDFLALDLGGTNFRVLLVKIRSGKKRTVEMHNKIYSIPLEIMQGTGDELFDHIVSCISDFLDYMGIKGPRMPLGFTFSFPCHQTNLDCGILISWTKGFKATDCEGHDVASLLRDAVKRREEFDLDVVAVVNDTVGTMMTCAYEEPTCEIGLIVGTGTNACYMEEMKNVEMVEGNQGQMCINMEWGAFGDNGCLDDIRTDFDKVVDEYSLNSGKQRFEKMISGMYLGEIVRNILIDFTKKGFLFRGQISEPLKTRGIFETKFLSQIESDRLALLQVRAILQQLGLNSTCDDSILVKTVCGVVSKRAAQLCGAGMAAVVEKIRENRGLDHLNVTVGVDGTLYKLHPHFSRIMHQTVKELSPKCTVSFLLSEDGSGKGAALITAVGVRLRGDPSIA
As to the kind of experiment: channel currents of planar-lipid-bilayer-reconstituted mVDAC1 before and after addition of HK-I (28 mU/ml). How it is done:
(§1) The dashed lines indicate the zero and the maximal current levels.
(§2) Briefly, PLB were prepared from soybean asolectin dissolved in n-decane (50 mg/ml) in a chamber containing 10 mM Hepes/KOH, pH 7.4 and 0.5 or 1M NaCl (cis/trans). Only PLBs with a resistance greater than 100 GΩ were used. Purified VDAC (about 1 ng) was added to the chamber defined as the cis side. After insertion of one or more channels into the PLB, excess protein was removed by perfusion of the cis chamber with 20 volumes of a same solution. Currents were recorded under voltage-clamp mode using a Bilayer Clamp amplifier (Warner Instruments, Hamden, Conn.). Currents were measured with respect to the trans side of the membrane (ground). The currents were low-pass filtered at 1 kHz, using a Bessal filter (Frequency Devices, Haverhill, Mass.) and digitized on-line using a Digidata 1200 interface board and pCLAMP 6 software (Axon Instruments). Sigma Plot 2000 scientific software was used for data analyses. Experiments were performed at 23-25° C. […] N-terminal VDAC1 peptides were diluted in running buffer (150 mM NaCl, 0.005% Tween-20, 4% (V/V) DMSO, 10 mM PBS, pH, 7.4) and injected onto the sensor chip at varying concentrations at a flow rate of 40 μl/min at 25° C.

The target of data set [2] is T1, purified rat brain HK-I (Hexokinase 1). The experiment in a line: channel currents of planar-lipid-bilayer-reconstituted VDAC1 before and after addition of HK-I. How it is done: as §1, §2
Data set [3] addresses T2, native mVDAC1 (mouse VDAC1).
T2 chain: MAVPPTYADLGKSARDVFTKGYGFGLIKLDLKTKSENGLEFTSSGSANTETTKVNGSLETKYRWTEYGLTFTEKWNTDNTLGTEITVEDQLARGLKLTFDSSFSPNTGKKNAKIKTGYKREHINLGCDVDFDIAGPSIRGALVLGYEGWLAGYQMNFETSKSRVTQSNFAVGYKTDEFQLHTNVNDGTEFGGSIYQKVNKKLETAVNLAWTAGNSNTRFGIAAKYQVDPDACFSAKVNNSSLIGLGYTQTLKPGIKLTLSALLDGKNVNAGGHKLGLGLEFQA

Data set [4] addresses T3, Δ(1-26)mVDAC1 (N-terminal truncated mouse VDAC1 lacking amino acids 1-26).
T3 chain: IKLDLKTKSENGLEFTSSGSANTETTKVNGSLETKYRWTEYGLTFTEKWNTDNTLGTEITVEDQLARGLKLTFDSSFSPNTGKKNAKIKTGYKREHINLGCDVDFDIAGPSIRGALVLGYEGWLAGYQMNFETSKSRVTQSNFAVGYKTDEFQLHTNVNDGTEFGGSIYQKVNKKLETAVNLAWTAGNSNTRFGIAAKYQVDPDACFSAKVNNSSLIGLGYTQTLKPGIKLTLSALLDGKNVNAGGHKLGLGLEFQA

B1: native mVDAC1 (mouse VDAC1) (other)
chain: T2 chain
notes: Native full-length mouse VDAC1 expressed in porin-less yeast, purified and reconstituted into planar lipid bilayers; also called native VDAC1; bilayer-reconstituted native VDAC1
Take B1: the binding result in data set [1] is listed as “binds”.

B2: Δ(1-26)mVDAC1 (N-terminal truncated mouse VDAC1 lacking amino acids 1-26) (other)
chain: T3 chain
notes: Expressed in porin-less yeast, purified and reconstituted into planar lipid bilayers; also called N-terminus truncated protein; truncated version of VDAC1
As for B2, the binding result in data set [2] is reported as “no binding (tested: 28 mU/ml)”.

B3: purified rat brain HK-I (Hexokinase 1) (protein)
chain: T1 sequence (looked up)
Turning to B3, the “channel activity (currents) of bilayer-reconstituted VDAC1” value is listed as “addition of HK-I to bilayer-reconstituted native VDAC1 induced the channel to fluctuate between the fully open, sub-conducting state to a stable, long-lived low-conducting state” in data set [3] and “HK-I had no effect on channel activity of the truncated version of VDAC1” in data set [4].
